Results taken from patent publication US20240390418A1 (MINERVA BIOTECHNOLOGIES, published 2024).

B4: N-10 peptide (peptide)
peptide: QFNQYKTEAASRYNLTISDVSVSDVPFPFSAQSGA
notes: also called PSMGFR N-10; PSMGFR minus 10 amino acids from the N-terminus

Tests used:
N+9/C-9 peptide = target: T1, N+9/C-9 peptide; experiment: ELISA, peptide on plate (FIG. 64)
T1 peptide: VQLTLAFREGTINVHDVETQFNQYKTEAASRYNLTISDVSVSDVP

N-10 peptide [1] = target: B4; experiment: peptide ELISA, told in tissue legend
PSMGFR peptide [2] = target: T2, PSMGFR peptide; experiment: peptide ELISA, told in tissue legend
T2 construct: also called MUC1* peptide
T2 peptide: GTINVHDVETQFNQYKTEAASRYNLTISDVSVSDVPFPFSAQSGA

[3] = target: T3, MUC1* expressed on HCT-116 cells transfected with MUC1* (extra cellular domain is just the PSMGFR sequence) (Homo sapiens (Human), UniProt P15941 1110-1255); experiment: denaturing Western blot of cell lysates (FIG. 72)
T3 construct: In Western blot rows the same protein stood denatured in cell lysate; also called HCT-MUC1*; HCT-FLR
T3 sequence: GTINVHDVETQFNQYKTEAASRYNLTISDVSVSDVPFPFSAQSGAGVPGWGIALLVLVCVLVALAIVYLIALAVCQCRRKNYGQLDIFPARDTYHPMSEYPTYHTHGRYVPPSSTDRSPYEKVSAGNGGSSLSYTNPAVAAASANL
Procedure: Antibodies were tested to determine whether they recognize a linear or a conformational epitope. Only antibodies that recognize a linear epitope work in Western blots when using denaturing gels. […] The antibodies tested for comparison are MNC2 and MNE6, which were known to only recognize a conformational epitope, SDIX which is a polyclonal antibody raised against PSMGFR and VU4H5, which is a commercially available monoclonal antibody that recognizes the tandem repeats of full-length MUC1 (FIG. 71A-71D). […] The SDIX polyclonal antibody recognizes HCT-MUC1* but not full-length MUC1 and VU4H5 only recognizes full-length MUC1. These same antibodies were also tested for their ability to work in Western blots of two breast cancer cell lines 1500, aka Zr-75-1, and T47D cells and show the same binding pattern (FIG. 71E-71H).
(§1) Antibodies that were raised against the PSMGFR peptide were tested the same way in Western blots (FIG. 72A-72P). […] Antibodies that were raised against the N+20/C-27 peptide were tested the same way in Western blots (FIG. 73A-73J). […] Antibodies 1E4 and 45C11 may recognize a conformational epitope. Antibodies that were raised against the N+9/C-9 peptide were tested the same way in Western blots (FIG. 74A-74H). […] These antibodies may recognize a conformational epitope.

PSMGFR peptide [4] = target: T2, PSMGFR peptide; experiment: ELISA, peptide on plate (FIG. 201A)
Procedure: (§2) FIG. 201A-201C show graphs of ELISA assays to determine the binding of another set of antibodies generated by immunizing animals with the PSMGFR peptide. […] F3, B12, B2, B7, B9, 8C7F3 and H11 all bound to the PSMGFR peptide and to the N-10 peptide.
(§3) This same ELISA assay was performed on the antibodies of the invention (FIGS. 64-66 and FIG. 201). Note that only 20A10 exactly matches the binding profile of MNC2 and MNE6. 25E6, 28F9 and 18G12 are all able to bind to the N-10 peptide. 18B4 is the only antibody raised against the PSMGFR peptide that requires the 10 most N-terminal amino acids of the peptide. The color of the bars for each antibody in the ELISA graph are color coded to match the deductive cognate sequence, or a portion thereof, of that antibody. In addition, another set of antibodies was assayed by ELISA (FIG. 201). Of this set, B12, B2, B7, B9, 8C7F3, and H11 bound to the PSMGFR peptide, bound to the N-10 peptide, but not to the C-10 peptide (FIG. 201). Although these antibodies were raised against the N+20/C-27 peptide, all but one, 45C11, still bind to the PSMGFR peptide, albeit at the N-terminal portion of PSMGFR.

N-10 peptide [5] = target: B4; experiment: ELISA, peptide on plate (FIG. 201B)
Procedure: as §2, §3

C-10 peptide [6] = target: T4, C-10 peptide; experiment: ELISA, peptide on plate (FIG. 201)
T4 construct: also called PSMGFR C-10; PSMGFR minus 10 amino acids from the C-terminus
T4 peptide: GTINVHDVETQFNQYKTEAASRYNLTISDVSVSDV

C-10 peptide [7] = target: T4, C-10 peptide; experiment: ELISA, peptide on plate (FIG. 64)
PSMGFR peptide [8] = target: T2, PSMGFR peptide; experiment: ELISA, peptide on plate (FIG. 2B)
Procedure: FIGS. 2A-2I show results of ELISA assays. MUC1* peptides PSMGFR, PSMGFR minus 10 amino acids from the N-terminus aka N-10, or PSMGFR minus 10 amino acids from the C-terminus, aka C-10 are immobilized on the plate and the following are assayed for binding: NME7-AB (FIG. 2A), MNC2 monoclonal antibody (FIG. 2B), MNE6 monoclonal antibody (FIG. 2C), or dimeric NME1 (FIG. 2D). […] MUC1* peptides PSMGFR minus 10 amino acids from the N-terminus aka N-10, or PSMGFR minus 10 amino acids from the C-terminus, aka C-10, are immobilized on the plate and the following are assayed for binding: MNC3 (FIG. 2E) and MNC8 (FIG. 2F).

[9] = target: T3, MUC1* expressed on HCT-116 cells …; experiment: flow cytometry, HCT-116 cells transfected with MUC1* (FIG. 35B)
N+20/C-27 peptide = target: T5, N+20/C-27 peptide; experiment: ELISA, peptide on plate (FIG. 63)
T5 peptide: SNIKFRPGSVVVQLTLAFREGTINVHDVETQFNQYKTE
Procedure: ELISA assays were performed to determine if, in addition to recognizing their immunizing peptide, they recognized PSMGFR, N-10 or C-10. In addition, they were tested for their ability to bind to N+20/C-27, N+9/C-9. We first did the ELISA assay on our set of reference antibodies, MNC2, MNE6, which we know are cancer-specific plus MNC3, which we know recognizes stem cells and progenitor cells (FIG. 63A-63B). None of the reference antibodies bound to the N+20/C-27 peptide. MNC2 and MNE6 cannot bind to PSMGFR peptides with 27, 10 or 9 C-terminal deletions, however, MNC3 binds to C-10 and to N+9/C-9 peptides.

N-10 peptide [10] = target: B4; experiment: ELISA, peptide on plate (FIG. 2B-2C)
NME7AB = target: T6, NME7AB (Homo sapiens (Human), UniProt Q9Y5B8 92-376); experiment: ELISA, peptide on plate (FIG. 2A-2D)
T6 construct: NME7A in the text appears to be NME7AB; also called NM23-H7; NME7A
T6 sequence: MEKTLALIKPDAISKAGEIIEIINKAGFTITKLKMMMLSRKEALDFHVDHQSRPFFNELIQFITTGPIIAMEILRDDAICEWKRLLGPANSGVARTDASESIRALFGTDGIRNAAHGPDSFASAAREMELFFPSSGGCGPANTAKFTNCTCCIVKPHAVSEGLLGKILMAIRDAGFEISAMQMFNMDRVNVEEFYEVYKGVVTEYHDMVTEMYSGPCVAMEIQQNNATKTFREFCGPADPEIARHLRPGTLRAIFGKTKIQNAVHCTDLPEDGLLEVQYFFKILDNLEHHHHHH

[11] = target: T3, MUC1* expressed on HCT-116 cells …; experiment: denaturing Western blot of cell lysates, longer exposure (FIG. 72G, 72H, 72O, 72P)
From the text: All these antibodies were raised against the PSMGFR peptide and bind to the PSMGFR peptide. […] FIG. 72A and FIG. 72I show 20A10. FIG. 72B and FIG. 72J show 25E6. FIG. 72C and FIG. 72K show 18B4. FIG. 72D and FIG. 72L show 18G12. FIG. 72E and FIG. 72M show 28F9. FIG. 72F and FIG. 72N show 3C2B1. FIG. 72G and FIG. 72O show 5C6F3. FIG. 72H and FIG. 72P show 5C6F3 wherein the blot has been exposed for a longer time period to render more visible the MUC1* specific bands.
as §1

N-10 peptide [12] = target: B4; experiment: peptide ELISA
PSMGFR peptide [13] = target: T2, PSMGFR peptide; experiment: peptide ELISA
PSMGFR peptide [14] = target: T2, PSMGFR peptide; experiment: ELISA, peptide on plate (FIG. 65)

B1: monoclonal antibody 25E6 (antibody, V domains shown)
VH: EVQLVESGGDLVKPGGSLKLSCAASGFTFSSYGMSWVRQTPDKRLEWVATISNGGRHTFYPDSVKGRFTISRDNAKNTLYLQMSSLKSEDTAMYLCVRQTGTEGWFAYWGQGTLVTVSA
VL: not shown
notes: Raised against PSMGFR; also called MN25E6; anti-PSMGFR antibody 25E6
**Q.** Which results are given for B1?
**A.** binding result (N+9/C-9 peptide): binds; binding result (N-10 peptide [1]): binds; binding result (PSMGFR peptide [2]): binds; binding result [3]: binds

B2: monoclonal antibody H11 (antibody, V domains shown)
VH: EVVLVESGGGLVEPGGSLKLSCVASGFAFSTFAMSWIRQTPEKRLEWVAAISNGGGYTYYPDTLKGRFTISRDNAKNTLYLQMSSLRSEDTAVYYCARRYYDLYFDLWGQGTSLIVSS
VL: DILMTQTPLSLPVSLGDQASISCRSSQNIVHSNGNTYLEWYLQKPGQSPKLLIYKVSNRFSGVPDRFSGSGSGTDFTLKISRVEAEDLGVYYCFQDSHVPLTFGAGTRLELK
notes: Raised against PSMGFR
**Q.** What does the source list for B2?
**A.** binding result (PSMGFR peptide [4]): binds; binding result (N-10 peptide [5]): binds; binding result (C-10 peptide [6]): no binding

B3: mouse monoclonal antibody MNC2 (antibody, V domains shown)
VH: EVQLEESGGGLVKPGGSLKLSCAASGFTFSGYAMSWVRQTPEKRLEWVATISSGGTYIYYPDSVKGRFTISRDNAKNTLYLQMSSLRSEDTAMYYCARLGGDNYYEYFDVWGAGTTVTVSS
VL: DIVITQSTASLGVSLGQRATISCRASKSVSTSGYSYMHWYQQRPGQPPKLLIYLASNLESGVPARFSGSGSGTDFTLNIHPVEEEDAATYYCQHSRELPFTFGGGTKLEIKR
notes: Mouse monoclonal raised against the PSMGFR peptide; also called Min-C2; MNC2-scFv (label in some tissue legends)
**Q.** Does B3 bind (N+9/C-9 peptide)?
**A.** no binding

**Q.** Does B3 bind (C-10 peptide [7])?
**A.** no binding

**Q.** Does B3 bind (PSMGFR peptide [8])?
**A.** binds

**Q.** Does B3 bind [9]?
**A.** binds

**Q.** Does B3 bind (N+20/C-27 peptide)?
**A.** no binding

**Q.** Does B3 bind (N-10 peptide [10])?
**A.** binds

**Q.** Does B4 bind (NME7AB)?
**A.** binds

B5: monoclonal antibody 5C6F3 (antibody, V domains shown)
VH: EVMLVESGGGLVKPGGSLKLSCAASGFTFSTYAMSWVRQTPEKRLEWVAAISNGGGYTYYPDSLKGRFTISRDNAKNTLYLQMSSLRSEDTATYYCARRYYDHYFDYWGQGTALTVSS
VL: DVLMTQTPLSLPVSLGDQASISCRSSQTIVHSNGNTYLEWYLQKPGQSPKLLIYKVSNRFSGVPDRFSGSGSGTDFTLKISRVEAEDLGVYYCFQDSHVPLTFGAGTKLELK
notes: Raised against PSMGFR; also called MN5C6F3; anti-PSMGFR antibody 5C6F3
**Q.** Does B5 bind [11]?
**A.** binds

**Q.** Does B5 bind (N-10 peptide [12])?
**A.** binds

**Q.** Does B5 bind (PSMGFR peptide [13])?
**A.** binds

B6: monoclonal antibody 45C11 (antibody, V domains shown)
VH: EVQLQQSGADLVKPGASVKLSCTASGFNIKDTFMHWVKQRPEQGLEWIGRIDPANGNTKYDPKFQGKATITADTSSNTAYLQLSSLTSEDTAVYYCAKPYGNYGYYYALDYWGQGTSVTVSS
VL: DVQITQSPSYLAASPGETITINCRASKSISKYLAWYQEKPGKTNKLLIYSGSTLQSGIPSRFSGSGSGTDFTLTISSLEPEDFAMYYCQQHNEFPWTFGGGTKLEIK
notes: Raised against the N+20/C-27 peptide; also called N+20/C-27 antibody 45C11
**Q.** Does B6 bind (PSMGFR peptide [14])?
**A.** no binding

**Q.** Does B6 bind (N-10 peptide [12])?
**A.** no binding
